How the values were obtained:
SCD Tg mice [1] = assay: Hematological parameters of SCD Tg mice treated with PEG-ADA or PSB1115 for 8 weeks; assay type: in vivo, mouse; settings: 8 weeks treatment
Excerpt: Mice. Berkley sickle cell disease transgenic mice (SCD Tg mice), expressing exclusively human sickle hemoglobin (HbS) were purchased from The Jackson Laboratory Inc (Paszty, C. Transgenic and gene knock-out mouse models of sickle cell anemia and the thalassemias. Curr Opin Hematol 4, 88-93, 1997). C57BL/6 mice used as controls were purchased from Harlan Laboratories. Adenosine receptor deficient mice were obtained from the following sources: A1R-deficient mice (Jurgen Schnermann, NIDDK, NIH); A2AR-deficient mice (Jiang-Fan Chen, Boston University School of Medicine); A2BR-deficient mice (Michael R. Blackburn, University of Texas-Houston Medical School); and A3R-deficient mice (Marlene Jacobson, Merck Research Laboratories). All receptor deficient mice were backcrossed at least 10 generations onto the C57Blk/6J background and were genotyped according to established protocols (Sun, D., et al. Mediation of tubuloglomerular feedback by adenosine: evidence from mice lacking adenosine receptors. Proc Natl Acad Sci USA 98, 9983-9988, 2001; Nemeth, Z. H., et al. Adenosine receptor activation ameliorates type 1 diabetes. FASEB J, 2007; Chen, J. F., et al. A2A adenosine receptor deficiency attenuates brain injury induced by transient focal ischemia in mice. J Neurosci 19, 9192-9200, 1999; Salvatore, C. A., et al. Disruption of the A3 adenosine receptor gene in mice and its effect on stimulated inflammatory cells. The Journal of Biological Chemistry 275, 4429-4434, 2000). Animals were maintained in accordance with institutional and NIH guidelines under research protocols that were reviewed and approved by the University of Texas Health Science Center at Houston Animal Welfare Committee.
(§1) Chronic PEG-ADA therapy. SCD transgenic mice, at eight weeks of age, were divided to two groups. One group was injected with 2.5 U PEG-ADA weekly for 8 weeks. This dosing protocol was designated SCD with PEG-ADA treatment regimen (SCD+PEG-ADA). Another group was injected with normal saline for 8 weeks; it was designated as SCD without PEG-ADA treatment regimen (SCD). Wild-type mice (C57Bl/6) used as control were injected with saline or PEG-ADA as with the SCD groups.
(§2) Chronic treatment with A2BR antagonist, PSB1115. SCD transgenic mice or wild type mice (eight weeks of age) were divided to two groups, one groups was injected with 200 μg of PSB1115 (an A2B receptor antagonist: obtained from Tocris Bioscience, St. Louis, Mo.) in PBS, daily for 8 weeks. One of groups was injected with saline.
(§3) Morphological study of erythrocytes and quantification of reticulocytes by flow cytometry. Blood smears were stained using the WG16-500 ml kit (Sigma-Aldrich) for sickled cells and observed using 100× oil immersion objective of Olympus BX60 microscope. […] The percentages of sickled cells among the counted cells were calculated. Reticulocyte was labeled by Retic-COUNT Reagent (Becton Dickinson) and quantified by flow cytometry (Perumbeti, et al., A novel human gamma-globin gene vector for genetic correction of sickle cell anemia in a humanized sickle mouse model: critical determinants for successful correction. Blood. 2009; 114(6):1174-1185).

SCD Tg mice [2] = assay: Hemolytic analysis of plasma of SCD Tg mice after chronic treatment; assay type: in vivo, mouse; settings: chronic PEG-ADA treatment
Method: as §1
Hemolytic analysis. The hemoglobin, haptoglobin and total bilirubin in mouse plasma were quantified by ELISA kits following instructions provided by the vendor (BioAssay Systems, Hayword, Calif.).

RBCs from SCD patients = assay: Hypoxia-induced sickling of RBCs from SCD patients; assay type: cell-based, human; settings: RBCs from individuals with SCD, hypoxic conditions
Method: Isolation of total erythrocytes and treatment of human and mouse erythrocytes in vitro. Blood collected with heparin as an anti-coagulant was centrifuged at 240×g for 10 min at room temperature, followed by aspiration of plasma and white interface. Packed red blood cells (RBCs) were washed 3 times with culture media (F-10 Ham's with 1% penicillin/streptomycin, 10% fetal bovine serum (FBS), and re-suspended to 4% hematocrit (HCT). One ml of RBCs was added to each well of a 12-well plate. Normal RBCs purified from humans were treated with different concentrations of 5′-(N-ethyl-carboxamido) adenosine (NECA, an adenosine receptor agonist, Sigma-Aldrich, St. Louis, Mo.) ranging from 1-50 μM for different time points (from 1 to 18 hr) under normoxic conditions. Normal RBCs were treated with 10 μM NECA in the presence or absence of adenosine receptor antagonists, including theophylline, PSB36, SCH442416, MRS1754 and MRS3777 (Tocris Bioscience, St. Louis, Mo.) at 10 μM. In addition, normal RBCs were treated directly with the A2BR agonist (BAY 60-6583, Bayer HealthCare AG, Wuppertal, Germany) or the A2AR agonist (CGS21680) (Tocris). Similarly, the mouse RBCs were treated with or without NECA at 10 μM in the presence or absence of theophylline (10 μM). In addition, RBCs purified from 4 adenosine receptor deficient mice were treated with 10 μM NECA. After 18 hours, cells were collected and 2,3-DPG levels were measured as described below. RBCs were purified from SCD patients and treated with or without 10 μM NECA, 5 units/ml polyethylene glycol-adenosine deaminase (PEG-ADA) or 3 mmol/L glycolic acid (Sigma-Aldrich), 10 μM MRS1754 (A2BR antagonist) under ambient oxygen (normoxia) or different levels of hypoxic conditions (for 3 hours with shaking at 37° C. At the end of experiments, 2,3-DPG levels were measured and the percentage of sickled cells determined as described below.
as §3

SCD Tg mice [3] = assay: Organ weight, histology and heme content in SCD Tg mice after chronic treatment; assay type: in vivo, mouse
Method: as §1, §2
Mouse organ isolation and histological analysis. Mice were anesthetized and body weight was determined. Organs were isolated and weighed. Half of each organ was quickly frozen in liquid nitrogen and then stored at −80° C. for heme content measurements as described below. The remaining half of each organ was fixed with 4% paraformaldehyde in PBS overnight at 4° C. Fixed tissues were rinsed in PBS, dehydrated through graded ethanol washes, and embedded in paraffin. 5 μm sections were collected on slides and stained with haematoxylin and eosin (H&E). Semiquantification of histological changes was analyzed by Image-Plus, Pro software.
Heme content measurement in multiple mouse tissues. Different organs were quickly removed and frozen in liquid nitrogen as described above. Heme was extracted from organs by homogenization with 1% Triton x-100 in PBS with 1× proteinase inhibitors (Roche) and the supernatant was collected following centrifugation at 20,000 g for 10 minutes at 4° C. Heme content was quantified following the instructions of QuantiChrom Heme Assay Kit (BioAssay Systems, Hayword, Calif.).

B1: PEG-ADA: polyethylene glycol-modified adenosine deaminase, a drug used to lower adenosine concentrations in ADA-deficient humans (protein, UniProt P56658 2-363, looked up)
Adenosine deaminase: AQTPAFNKPKVELHVHLDGAIKPETILYYGRKRGIALPADTPEELQNIIGMDKPLSLPEFLAKFDYYMPAIAGCREAVKRIAYEFVEMKAKDGVVYVEVRYSPHLLANSKVEPIPWNQAEGDLTPDEVVSLVNQGLQEGERDFGVKVRSILCCMRHQPSWSSEVVELCKKYREQTVVAIDLAGDETIEGSSLFPGHVKAYAEAVKSGVHRTVHAGEVGSANVVKEAVDTLKTERLGHGYHTLEDATLYNRLRQENMHFEVCPWSSYLTGAWKPDTEHPVVRFKNDQVNYSLNTDDPLIFKSTLDTDYQMTKNEMGFTEEEFKRLNINAAKSSFLPEDEKKELLDLLYKAYGMPSPASAEQCL
modifications: PEGylated
HCT (SCD Tg mice [1]): 30.15 ± 8.90 % | Hb (SCD Tg mice [1]): 7.71 ± 2.64 g/dL | MCH (SCD Tg mice [1]): 12.38 ± 2.85 pg | MCHC (SCD Tg mice [1]): 25.33 ± 1.21 g/dL | MCV (SCD Tg mice [1]): 48.58 ± 8.79 fL | RDW (SCD Tg mice [1]): 28.03 ± 1.14 % | Reticulocyte (SCD Tg mice [1]): 43 ± 4.52 % | Sickle cell (SCD Tg mice [1]): 10.35 ± 0.39 % | WBC (SCD Tg mice [1]): 15.00 ± 2.79 k/μl | RBC (SCD Tg mice [1]; mean ± SEM): 6.15 ± 1.01 M/μl | plasma Hb (SCD Tg mice [2]): decreased | plasma haptoglobin (SCD Tg mice [2]): increased | total bilirubin (SCD Tg mice [2]): decreased | percentage of sickled cells (RBCs from SCD patients): significantly reduced | congestion, vascular damage and necrosis in multiple tissues (histology) (SCD Tg mice [3]; 8 weeks treatment, lung, liver, spleen (PSB1115 also kidney)): improved | heme content in lung, liver and spleen (SCD Tg mice [3]; PEG-ADA enzyme therapy): significantly decreases | microinfarction and cysts in renal cortex and congestion in renal medulla (SCD Tg mice [3]; PEG-ADA enzyme therapy): significantly improved | ratio of spleen weight to body weight (SCD Tg mice [3]; chronic treatment, untreated 4.52±0.24, p<0.05, n=8): 2.48±0.36

— patent US20120134979A1, “METHODS AND COMPOSITIONS FOR THE TREATMENT OF SICKLE CELL DISEASE” (priority 2010, published 2012)
